From the RNAGym collection of RNA variant scans (doi:10.1073/pnas.2313332121)

B1: TPR t1 (parent)
chain: GACCAAUCUGCCCUCAGAGCUCGAGAACAUCUUCGGAUGCAGAGGAGGCAGGCUUCGGUGGCGCGAUAGCGCCAACGUCCUCAACCUCCAAUGCAUCCCACCACAUGAUGAUGCCUGAAGAGCCUUGGUUUUUUG

Variants of: B1
Assay: polymerase ribozyme fitness, log enrichment relative to wild type (log ratio); higher = more active; in vitro selection for triplet polymerase activity
Summary of the method: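 Input and output libraries were sequenced on Illumina after a single in vitro selection round, run in triplicate on PCR-built, transcribed mutant libraries of each subunit of a heterodimeric triplet polymerase ribozyme. Selection annealed libraries to a biotinylated primer, the partner subunit and triplets, incubated them frozen at −7 °C, then gel-excised extended constructs for streptavidin-bead capture and RT-PCR. Genotypes with ≥10 input reads and ≥1 read per output were kept. Fitness is the logarithm, taken in base 2, of genotype enrichment divided by wild-type enrichment, using inverse-variance-weighted replicate averages.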

Variant | polymerase ribozyme fitness (log ratio)
GCCCAAUCUGCCCUCAGAGCUCGAGAACAUCUUCGGAUGCAGAGGAGGCAGGCUUCGGUGGUGCGAUAGCGCCAACGUCCUCAACCUCCAAUGCAUCCCACCACAUGAUAAUGCCUGAAGAGCCUUGGUUUUUUG [A2C C62U G110A] | -3.07
GCCCAAUCUGCCCUCAGAGCUCGAGAACAUCUUCGGAUGCAGAGGAGGCAGGCUUCGGUGGCUCGAUAGCGCCAACGUCCUCAGCCUCCAAUGCAUCCCACCACAUGAUGAUGCCUGAAGAGCCUUGGUUGUUUG [A2C G63U A84G U131G] | -4.08
GCCCAAUCUGCCCUCAGAGCUCGAGAACAUCUUCGGAUGCAGAGGAGGCAGGCUUCGGUGGCGCGAUAGCGCCAACGUCCUCAACCUGCAAUGCAUCCCACCAAAUGAUGAGGCCUGAAGAGCCUUGGUUUUUUG [A2C C88G C104A U112G] | -4.8
GCCCAAUCUGCCCUCAGAGCUCGAGAACAUCUUCGGAUGCAGAGGACGCAGGCUUCGGUGGCGCGAUAGCGCCAACGUCCUCAACCUCCAAUGCAUCCCACCACAUGAUGAUGCCUGAAGAGGCUUGGUUUUUUG [A2C G47C C123G] | -2.2
GCCCAAUCUGCCCUCAGAGCUCGAGAACAUCUUCGGAUGCAGAGGAGGCAGGCUUCGGUGGCGCGAUAGCGUCAACGUCCUCAACCUCCAAUGCAUCCCACCACAUGAUGAUGCCUGAAGAGCCUUGGUUUUUUG [A2C C72U] | -2.38
GCCCAAUCUACCUUCAGAGCUCGAGAACAUCUUCGGAUGCAGAGGAGGCAGGCUUCGGUGGCGCGAUACCGCCAACGUCCUCAACCUCCAAUGCAUCCCACCACAUGAUGAUGCCUGAAGAGCCUUGGUUUUUUG [A2C G10A C13U G69C] | -3.6
GCCCAAUCUGCCCUUAGAGCUCGAGAACAUCUUCGGAUGCAGAGGAGGCAGGCUUUGGUGGCGCGAUAGCGCCAACGUCCUCAACCUCCAAUGCAUCCCACCACAUGAUGAUGCCUGAAGAGCCUUGGCUUUUUG [A2C C15U C56U U129C] | -1.75
GCUCAAUCUGCCCUCAGAGCUCGAGAACAUCUUCGGAUGCAGAGGAGGCAGGCUUCGGUGGCGCGAUAGCGCCAACGUCCUCAACCUCCAAUGCAUCCCACCACAUGAUGAUGCCUGAAGAGCCUUGGUUUUUUG [A2C C3U] | -1.71
GCCCAAUCUGCCCUCAGAGCUCGAGAACAUCUUCGGAUGCACAGGAGGCAGGCUUCGGUGGCGCGAUAGCGCCAACGUCCUCAACCUCCAAUGCAACCCACCACAUGAUGAUGCCUGAAGAGUCUUGGUUUUUUG [A2C G42C U96A C123U] | -3.31
GCCCAAUCUGCCCUUAGAGCUCGAGAACAUCUUCGGAUGCAGAGGAGGCAGGCUUCGGUGGCGCGAUAGCGCCAACGUCCUCAACCUCCAAUGCAUCCCACCAUAUGAUGAUGCCUGAAGAGCCUUGGUUUUUUG [A2C C15U C104U] | -2.51
GCCUAAUCAGCCCUCAGAGCUCGAGAACAUCUUCGGAUGCAGAGGAGGCAGGCUUCGGUGGCGCGAUAGCGCCAAUGUCCUCAACCUCCAAUGCAUCCCACCACAUGAUGAUGCCUGAAGAGCCUUGGUUUUUUG [A2C C4U U9A C76U] | -0.884
GCCCAAUCUGCCCUCAGAGCUCGAGAACAUCUUCGGAUUCAGAGGAGGCAGGCUUCGGUGGCGCGAUAGCGCCAACGUCCUCAACCUCCAAUGCAUCCCACCACAUGAUGAUGCCUGAAGAGCCUUGGUUUUUUG [A2C G39U] | -2.12
GCCCAAUCUGCCCUCAGAGCUCGAGAACAUCUUCGGUUGCAGAGGAGGCAGGCUUGGGUGGCGCGAUAACGCCAACGGCCUCAACCUCCAAUGCAUCCCACCACAUGAUGAUGCCUGAAUAGCCUUGGUUUUUUG [A2C A37U C56G G69A U78G G120U] | -5.2
GCCCAAUCUGCGCUCAGAGCUCGAGAACAUCUUCGGAUGCAGAGGAGGCAGGCUUCGGUGGCGCGAUAGCGCCAACGUCCUCAACCUCCAAUGCAUCCCACCACAUGAUGAUGCAUGAAGAGCCAUGGUUUUUUG [A2C C12G C115A U125A] | -2.05
GCCCAAUCUGCCCUCAGAGCUCGAGAACAUCUUCGGAUGCAGAGGAGGCAGGCUUCGGUGGCGCGAUAGCGCCAACGUCCUCUACCUCCAAUGCAUCCCACCACAUGAUGAUGCCUGAAGAGCCUUGGUUUUUUG [A2C A83U] | -1.1
GCCCAAUCUGCCCUCAGAGCUCGAGAACAUCUUCGGAUGCAGAGGAGGCAGGCUUCGGUGGCGCGAUAGCGCCAACGUCCUCAACCUCCAAUGCAUCCCACCACCUGAUGAUGCCUGAAGAGCCUUGGUUUUUUG [A2C A105C] | -4.23
GCCCAAUCUGACCUCACAGCUCGAGAACAUCUUCGGAUGCAGAGGAGGCAGGCUUCGGUGGCGCGAUAGUGCCAACGUCCUCAACCUCCAAUGCAUCCCACCACAUGAUGAUGCCUGAAGAGGCUUGGUUUUUUG [A2C C11A G17C C70U C123G] | -3.69
GCCCAAUCUGCCCUCAGAGCUCGAGAACAUCUUCGGAUGCAGAGGAGGGAGGCUUCGGUGGCGCGAGAGCGCCAACGUCCUCAGCCUCCAAUGCAUCCCACCACAUGAUUAUGCCUGAAGAGCCUUGGUUUUUUG [A2C C49G U67G A84G G110U] | -5.64
GCCCAAUCUGCCCUCAGAGCUCGAGAACAUCUUCGGAUGCAGAGGAGGCAGCCUUCGGUGGCGCGAUAGCGCCAACGUCCUCAACCUCCAAUGCAUCCCACCACAUGAUGAUGCCUGAAGAGCCUUGGUUUUUUG [A2C G52C] | -2.58
GCCCCAUCUGCCCUCAGAGCUCGAGAACAUCUUCGGAUGCAGAGGAGGCAGGCUUCGGUGGAGCGAUAGCGCCAACGUCCUCAACCUCCAAUGCAUCCCACCACAUGAUGAUGCCUGAAGAGCCUUGCUUUUUUG [A2C A5C C62A G128C] | -2.75
GCCCAAUCUGCGCUCAGAGCUCGAGAACAUCUUCGGAUGCAGAGGAGGCAGGCUUCGGUGGCGCGAUAUCGCCAACGUCCUCAACCUCCAAUGCAUCCCACCACAUGAUGAUGCCUGAAGAGCCUUGGUUUUUUG [A2C C12G G69U] | 0.12

Variant | polymerase ribozyme fitness (log ratio)
GCCCAAUCUGCCAUCAGAGCUCGAGAACAUCUUCGCAUGCAGAGGAGGCAGGCUUCGGUGGCGCGAUAGCGCCAACGUCCUCAACCUCCAAUGCAUCCCACCACAUGAUGAUGCCUGAAUAGCCUUGGUUUUUUG [A2C C13A G36C G120U] | -1.59
GCCCAAUCUGCCCUCAGAGCUCGAGAACAUCUUCGGAUGCAUAGGAGGCAGGCUUCGGUGGCGCGAUAGCGCCAACGUCCUCAACCUCCAAUGCAUCCCACCACAUGAUGAUGCCUGAAGAGCCUUGGUUUUUUG [A2C G42U] | -3.31
GCCCAAUCUGCCCUCAGAGGUCGAGAACAUCUUCGGAUGCAGAGGAGGCAGGCUUCGGUAGCGCGAUAGCGCCAACGUCCUCAACCUCCAAUGCAUCCCACCACAUGAUGACGCCUGAAGAGCCUUGGUUUUUUG [A2C C20G G60A U112C] | -4.64
GCCCAAUCUGCGCUCAGAGCUCGAGAACAUCUUCGGAUGCAGAGGAGGCAGGCUUCGGUGGCGCGAUAGCGCCAACGUCCUCAACCUCCAAUGCAUCCCACCACAUGAUGAUGCCUGAAGAGCCUUGGUUUUUUG [A2C C12G] | -1.09
GCCCAAUCUGCCCUAAGAGCUCGAGACCAUAUUCGGAUGCAGAGGAGGCAUGCUUCGGUGGCGCGAUAGCGCCAACGUCCUCACCCUCCAAUGCAUCCGACCACAUGAUGAUGCCUGAAGUGCCUUGGUGUUUUG [A2C C15A A27C C31A G51U A84C C99G A121U U130G] | -6.15
GCCCAAUCUGCCCUCAGAGCUCGAGAACAUCUUCGGAUGCAGAGGAGGCAGGCUUCGGUGGCGCGAUAGCGACAACGUCCUCAACCUCCAAUGCAUCCCACCACAUGAUGAUGCCUGAAUAGCCUUGGUUUUUUG [A2C C72A G120U] | -1.37
GCCCAAUCUGCCCUCAGAACUCGAGAACCUCUUCGGAUGCGGUGGAGGCAGGCUUCGGUGGCGGGAUAGCGCCAACGUCCUCAACCUCCAAUGCAUCCCACCACAUGAUGAUACCUGAAGAGACUGGGUUUUUUG [A2C G19A A29C A41G A43U C64G G113A C123A U126G] | -5.93
GCCCAAUCUGCCCUCAGAGCUCGAGAACAUCUUCGGAUGCAGAGGAGGCAGGCUUCGGUGGCGCGAUAGCGCCAACGUCCUCAACCUCGAAUGCAUCCCACCACAUGAUGAUGCCUGAAGAGCCUUGGUUUUUUG [A2C C89G] | -3.68
GCGCAAUCUGCCCUCAGAGCUCGAGAACAUCUUCGGAUGCAGAGGAGGCAGGCUUCGGUGGCGCGAUAGCCCCAACGUCCUCAACCUCCAAUGCAUCCCACCACAUGAUGAUGCCUGAAGAGCCUUGGAUUUUUG [A2C C3G G71C U129A] | -4.77
GCCCAAUCUGCCCUCAGAGCUCGAGAACAUCUUCGGAUGCAGACGAGGCAGGCUUCGGUGGCGCGAUAGCGCCAACGUCCUCAACCUCCAAUGCAUCCCACCACAUGAUGAUGCCUGAAGAGCCUUGGUUUUUUG [A2C G44C] | -3.44
GCCCAAUCUGCCCUCAGAGCUCGAGAACAUCUUCGGAUGCAGAGGAGGCAGGCUUCGGUGUCGCGAUAGCGCCAACGUCCUCAACCUCCAAUGCAUCCCACCACAUGAUGAUGCCUGAAGAGCCUUGGUUUUUUG [A2C G61U] | -1.66
UACCAAUCUGCCCUCAGAGCUCGAGAACAUCUUCGGAUGCAGAGGAGGCAGGCUUCGGUGGCGCGAUAGCGCCAACGUCCUCAACCUCCAAUGCAUCCCACCACAUGAUGAUGCCUGAAGAGCCUUGGUUUUUUG [G1U] | 0.29
GCCCAAUCUGCCGUUAGAGCUCGAGAACAUCUUCGGAUGCAGAGGAGGCAGGCUUCGGUGGUGCGAUAGCGCCAACGUCCUCAACCUCCAAUGCAUCCCACCACAUGAUGAUGCCUGAAGAGCCUUGGUUUUUUG [A2C C13G C15U C62U] | -4.93
GCCCAAUCUGCUCUCAGAGCUCGAGAACAUCUUCGGAUGCAUAGGAGGCAGGCUUCGGUGGCGCGAUAGCGCCAACGUCCUCAUCCUCCAAUGAAUCCCACCACAUGAUGAUGCCUGAAGAGCCUUGGAUUUUUG [A2C C12U G42U A84U C94A U129A] | -3.55
GCCCAAUCUGCCCUCAGAGCUCGAGAACAUCUUCGGAUGGAGAGGAGGCAGGCUUGGGUGGCGCGAUAGCGGCAACGUCCUCAACCUCCAAUGCAUCCCACCACAUGAUGAUGCCUGAAGAGCUUUGGUUUUUUG [A2C C40G C56G C72G C124U] | -4.17
GCCCAAUCUGCCCUCAGAGCUCGAGAACAUCUUCGGAUGCAGAGGAGGCUGGCUUCGGUGGCGCGAUAGCGCCAACGUCCUCAACCUCCAAUGCAUCCCACCACAUGAUGAUGCCUGAAGAGCCUUGGUUUUUUG [A2C A50U] | -2.44
GCCAAAUCUGCCCUCAGAGCUCGAGAACAUCUUCGGAUGCAGAGGAGGCAGGCUUCGGUGGCGCGAUAGCGCCAACGUCCUCAACCUCCAAUGCAUCCCACCACAUGAUGAUGCCUGAAAAGCCUUGGUUUUUUG [A2C C4A G120A] | 0.58
GCCCAAUCUGCCCUCAGAGCUCGAGAACAUCUUCGGAUGCAGAGGAGGCAGGCUUCGGUGGCGCGAUAGCGCCAACGUCCUCAACCUCCAAUGCAUCCCAACACAUGAUGAUGCCUGAAGAGCCUUGGAUUUUUG [A2C C101A U129A] | -2.79
GCCCAAUCUGCCCUCAGAGCUCGAGAACAUCUUCGGAUGCAGAGGAGGAAGGCUUCGGUGGCGCGAUAGCGCCAACGUCCUCAACCUCCAAUUCAUCCCACCACAUGAUAAUGCCUGAAGAGCCUUGGUUUUUUG [A2C C49A G93U G110A] | -4.44
GCCCAAUCUGCCCUCAGAGCUCGGGAACCUCUUCGGAUGCAGAGGAUGCAGGCUUCGGUGGCGCGAUAGCGCCAACGUCCUCAACCUCCAAUGCAUCCCACCACAUGAUGAUGCCUGAAAAGCCUUGGUUUUUUG [A2C A24G A29C G47U G120A] | -5.73
GCGCAAUCUGCCCUCAGAGCUCGAGAACAUCUUCGGAUGCAGAGGAGGCAGUCUUCGGUAGCGCGAUAGCGCCAACGUCCUCAACCUCCAAUGCAUCCCACCACAUGAUGAUGCCUGAAGAGCCUUGGAUUUUUG [A2C C3G G52U G60A U129A] | -5.23
